Source: the RNAGym collection of RNA variant scans (doi:10.1073/pnas.2313332121)

B1: TPR t1 (parent)
chain: GACCAAUCUGCCCUCAGAGCUCGAGAACAUCUUCGGAUGCAGAGGAGGCAGGCUUCGGUGGCGCGAUAGCGCCAACGUCCUCAACCUCCAAUGCAUCCCACCACAUGAUGAUGCCUGAAGAGCCUUGGUUUUUUG

Variants of: B1
Assay: polymerase ribozyme fitness, log enrichment relative to wild type (log ratio); higher = more active; in vitro selection for triplet polymerase activity
In short: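 Each subunit of a heterodimeric triplet polymerase ribozyme was represented by a PCR-built, transcribed mutant library that underwent triplicate single-round in vitro selection with frozen incubation at −7 °C. Extended constructs were recovered by gel excision, streptavidin-bead capture and RT-PCR, and Illumina sequencing of input and output libraries kept genotypes with ≥10 input reads and ≥1 read per output. Fitness is the logarithm of genotype enrichment relative to wild-type enrichment, from inverse-variance-weighted replicate averages, with a logarithm base of 2.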

Variant	polymerase ribozyme fitness (log ratio)
GACCAAUCUGCCCUCAGAGCUCGAGAACAUCUUCGGAUGCAGAGGAGGCAGGCUUCGGUGCCGCGAUAGCGCCAACGUCCUCAACCUCCCAUGCAUCCCACCACAUGAUGAUGCCUGAAGAGCCUAGGUUUUUUG	-4.32
GACCAAUCUGCCCUCAGAGCUCGAGAACAUCUUCGGAUGCAGAGGAGGCAGGCUUCGGUGCCGCGAUAGCGCCAACGUCUUCAACCUCCAAUGCAUCCCACCACAUGAUGAUGCCUGAAUAGCCUUGGUUUUUUG	-7.22
GACCAAUCUGCCCUCAGAGCUCGAGAACAUCUUCGGAUGCAGAGGAGGCAGGCUUCGGUGCCGCGAUAGCGCCAGCGUCCGCAACCUCCAAUGCAUCCCACCACAUGAUGAUGCCUGAAGAGCCUUGGUUUUUUG	-4.25
GACCAAUCUGCCCUCAGAGCUCGAGAACAUCUUCGGAUGCAGAGGAGGCAGGCUUCGGUGCCGCGAUAGCGCCAACGUCAUCAACCUCCAAUGCAUCCCAACACAUGAUAAGGCUUGAAGAGCCUUGGUUUUUUG	-8.21
GACCAAUCUGCCCUCAGAGCUCGAGAACAUCUUCGGAUGCAGAGGAGGCAGGCUUCGGUGCCGCGAUAGCGCCAACGUCCUCAACCUCCAAUGCAUCCCACCCCAUGAUGAUGCCUGAAGAGCCUUGGUGUUUUG	-6.98
GACCAAUCUGCCCUCAGAGCUCGAGAACAUCUUCGGAUGCAGAGGAGGCAGGCUUCGGUGCCGCGAUAGCGCCAACGUCCUCAACCUCCAAUGUAUCCCACCACAUGAUGAAGCCUGAAGAGCCUUGGUUUUUUG	-1.52
GACCAAUCUGCCCUCAGAGCUCGAGAACAUCUUCGGAUGCAGAGGAGGCAGGCUUCGGUGCCGCGAUAGCGCCAACGUCCUCAACCUCCAUUGCAUCCCACCACAUGAUGAUGCCUGAAGAGCCUUGGUUUUUUG	-4.64
GACCAAUCUGCCCUCAGAGCUCGAGAACAUCUUCGGAUGCAGAGGAGGCAGGCUUCGGUGCCGCGAUAGCGCCAACGUCCUCAACCUCCAAUGCAUCCCACUACAUGAUGAUGCCUGAAGAACAUUGGUUUUUUG	-3.47
GACCAAUCUGCCCUCAGAGCUCGAGAACAUCUUCGGAUGCAGAGGAGGCAGGCUUCGGUGCCGCGAUAGCGCCAACGUUCUCAACCUCCAAUGCAUCCCACCACAUGAUGAUGCCUGAAGAGCCUUGGUUUUUUG	-1.46
GACCAAUCUGCCCUCAGAGCUCGAGAACAUCUUCGGAUGCAGAGGAGGCAGGCUUCGGUGCCGCGAUAGCGCCAACGUCUUCAACCUCCAAUGCAUCCCACCACAUGAUGAUGCCUGAAGAGCCUUGGUUUUUUG	-5.08
GACCAAUCUGCCCUCAGAGCUCGAGAACAUCUUCGGAUGCAGAGGAGGCAGGCUUCGGUGCCGCGAUAGCGCCAACGUCGUCAACCUCCAAUGCAUCCCACCACAUGAUGAUGCCUGAAGAGCCUUGGUUUUUUG	-4.64
GACCAAUCUGCCCUCAGAGCUCGAGAACAUCUUCGGAUGCAGAGGAGGCAGGCUUCGGUGCCGCGAUAGCGCCAACGUCAUCAACCUCCAAUGCAUCCCACCACAUUAUGAUGUCUGAAGAGCCUUCGUUUUUUG	-5.81
GACCAAUCUGCCCUCAGAGCUCGAGAACAUCUUCGGAUGCAGAGGAGGCAGGCUUCGGUGCCGCGAUAGCGUCAACGUCCUCAACCUCCAAUGCAUCCCACCACAUGAUGAUGCCUGAAGAGCCUUGGUUUUUUG	0.273
GACCAAUCUGCCCUCAGAGCUCGAGAACAUCUUCGGAUGCAGAGGAGGCAGGCUUCGGUGCCGCGAUAGCGCCAACGUCCUCAACCUCCAAUGCAUCCCACCACCUGAUGAUGCCUGAAGAGCCUUGGUUUUUUG	-4.76
GACCAAUCUGCCCUCAGAGCUCGAGAACAUCUUCGGAUGCAGAGGAGGCAGGCUUCGGUGCCGCGAUAGCGCCAACGUCCUCAACCUCCAAUGCAUCCCACCACUUGAUGAUGCCUGAAGAGCCUUGGUUUUUUG	-3.67
GACCAAUCUGCCCUCAGAGCUCGAGAACAUCUUCGGAUGCAGAGGAGGCAGGCUUCGGUGCCGCGAUAGCGCCAACGUCCUCAACCUACAAUGCAUCCCACCACAUGAUGAUGCCUUAAGAGCCUUGGUUUUUUG	-5.25
GACCAAUCUGCCCUCAGAGCUCGAGAACAUCUUCGGAUGCAGAGGAGGCAGGCUUCGGUGCCGCGAUAGCGCCAACGUCCUCAACCUCCAAUGCAUCCCUCCACAUGAUGAUGCCUGAAGAGCCUUGGUUUUUUG	-2.98
GACCAAUCUGCCCUCAGAGCUCGAGAACAUCUUCGGAUGCAGAGGAGGCAGGCUUCGGUGCCGCGAUAGCGCCAUCGUCCUCACCCUCCAAUGCCUCCCACCACAUGAUGAUGCCUGAAGAGCCUUGGUUUUUUG	-1.21
GACCAAUCUGCCCUCAGAGCUCGAGAACAUCUUCGGAUGCAGAGGAGGCAGGCUUCGGUGCCGCGCUAGCGCCAACGUCCUCAACCUCCAAUGCAUCCCACCACAUGAUGAUGCCUGAAGAGCCUUGGUUUUUUG	-2.87
GACCAAUCUGCCCUCAGAGCUCGAGAACAUCUUCGGAUGCAGAGGAGGCAGGCUUCGGUGCCGCGAUAGCGCCAACGUCCUCAACCUCCAAUGCAUCCCACCACAUGAUGAUGCCUGAUGAGCCUUGGUUUUUUG	-1.89
GACCAAUCUGCCCUCAGAGCUCGAGAACAUCUUCGGAUGCAGAGGAGGCAGGCUUCGGUGCCGCGAUAGCGCCAACGUCCUCAACCUCCAAUGCAUCCCACCACAUGAUGAUGCCUGAGGAGCCUUGGUUUUUUG	-0.986

Variant	polymerase ribozyme fitness (log ratio)
GACCAAUCUGCCCUCAGAGCUCGAGAACAUCUUCGGAUGCAGAGGAGGCAGGCUUCGGUGCCGCGAUAGCGCGAACGUCCUCAACCUCCAAUGCAUCCCACCACAUGAUGAUGCCUGAAGAGCCUUGGUUUUUGC	-1.75
GACCAAUCUGCCCUCAGAGCUCGAGAACAUCUUCGGAUGCAGAGGAGGCAGGCUUCGGUGCCGCGAUAGCGCCAACGUGCUCAACCUCCAAAGCAUCCCACCACAUGAUGAUGCCUUAAGAGCCUUGGUUUUUUG	-6.69
GACCAAUCUGCCCUCAGAGCUCGAGAACAUCUUCGGAUGCAGAGGAGGCAGGCUUCGGUGCCGCGAUAGCGCCAACGUCAUCAACCUCCAAUGCAUCCCACCACAUGAGGAUGCCUGAAGAGCCUUGGUUUUUUG	-6.27
GACCAAUCUGCCCUCAGAGCUCGAGAACAUCUUCGGAUGCAGAGGAGGCAGGCUUCGGUGCCGCGAUAGCGCCAACGUCCUCAACCUCCAAUGCAUCCCACCACAUGAUGAUGCCUGAAGCGCCUUGGUUUUUUG	-0.241
GACCAAUCUGCCCUCAGAGCUCGAGAACAUCUUCGGAUGCAGAGGAGGCAGGCUUCGGUGCCGCGAUAGCGCCAACGUCCUCAACCUCCAAUGCAUCCUACCACAUGAUGCUGCCUGAAGAGCCUUGGUUUUUUG	-5.26
GACCAAUCUGCCCUCAGAGCUCGAGAACAUCUUCGGAUGCAGAGGAGGCAGGCUUCGGUGCCGCGAUAGCGCCAACGUCCUCAACCUCCAGUGCAUCCCACCACAUGAUGACGCCUGAAGAACCUUGGUUUUUUG	-3.24
GACCAAUCUGCCCUCAGAGCUCGAGAACAUCUUCGGAUGCAGAGGAGGCAGGCUUCGGUGCGCCGAUAGCGCCAACGUCCUCAACCUCCAAUGCAUCCCACCACAUGAUGAAGCCUGAAGAGCCUUGGUUUUUUG	-4.63
GACCAAUCUGCCCUCAGAGCUCGAGAACAUCUUCGGAUGCAGAGGAGGCAGGCUUCGGUGCCGCGAUAGCGCCAACGUCCUUAACCUCCAAUGCAUCCCACCACAUGAUGAUGCCUAAAGAGCCUUGGUUUUUUG	-2.78
GACCAAUCUGCCCUCAGAGCUCGAGAACAUCUUCGGAUGCAGAGGAGGCAGGCUUCGGUGCCGCGAUAGCGACAACGUCCUCAACCUCCAAUGCAUCCCAACACAUGAUGAUGCCUGAAUAGACUUGGUUUUUUG	-0.675
GACCAAUCUGCCCUCAGAGCUCGAGAACAUCUUCGGAUGCAGAGGAGGCAGGCUUCGGUGCCGCGAUAGCGCCAACGUCCUCAACCUCCAAUGAAUCCCACCACAUGAUGAUGCCUGAAGAGCCUUGGUUGUUUG	-2.91
GACCAAUCUGCCCUCAGAGCUCGAGAACAUCUUCGGAUGCAGAGGAGGCAGGCUUCGGUGCCGCGAUAGCGCCAUCGUCCUCAACCUCCAAUGCAUUCCACCACAUGAUGAUGCCUGAAGAGCCUUGGUUUUUUG	-0.192
GACCAAUCUGCCCUCAGAGCUCGAGAACAUCUUCGGAUGCAGAGGAGGCAGGCUUCGGUGCCGCGAUAGCGCCAACGUCCUCAACCUCCAAUGUAUCCCACCACAUGAUGAUGCUUGAAGGGCCUUGGUUUUUUG	-4.32
GACCAAUCUGCCCUCAGAGCUCGAGAACAUCUUCGGAUGCAGAGGAGGCAGGCUUCGGUGCCGCGAUAGCGCCAACGUCCUAAACCUCCAAUGCAUCCCACCACAUGAUAAUGCCUGAAGAGCCUUAGUUUUUUG	-3.64
GACCAAUCUGCCCUCAGAGCUCGAGAACAUCUUCGGAUGCAGAGGAGGCAGGCUUCGGUGCCGCGAUAGCGCUAACGUCCUCAACCUCCAAUGCAUCCCACCACAUGAUGAUGCCUGAAGAGCCUUGGUUUUUUG	-2.31
GACCAAUCUGCCCUCAGAGCUCGAGAACAUCUUCGGAUGCAGAGGAGGCAGGCUUCGGUGCCGCGAUAGCGCCAACGUCCUCAGCCUCCAAUGCAUCCCACCACAUGAGGAUGCCUGAAGAGCCUUGGUUUUUUG	-6.69
GACCAAUCUGCCCUCAGAGCUCGAGAACAUCUUCGGAUGCAGAGGAGGCAGGCUUCGGUGCCGAGAUAGCGCCAACGUCCUCAACCUCCAAUGGAUCCCACCACAUGAUGAUCCCUGAAGAGCAUUGGUUUUUUG	-6.83
GACCAAUCUGCCCUCAGAGCUCGAGAACAUCUUCGGAUGCAGAGGAGGCAGGCUUCGGUGCCGCGAUAGCGCCAACGUCCUCAACCUCCAAUGCAUCCCACCAUAUGAUGAUGCCUGAAGAGCCUUGGUUUUUUG	-1.51
GACCAAUCUGCCCUCAGAGCUCGAGAACAUCUUCGGAUGCAGAGGAGGCAGGCUUCGGUGCCGCGAUAGCGCCAACGUCCUCAACCUCCAAUGCAUCCCAACACAUGAUGAUGCCUGAAGAGCCUUGGUUUUUUG	-2.74
GACCAAUCUGCCCUCAGAGCUCGAGAACAUCUUCGGAUGCAGAGGAGGCAGGCUUCGGUGCCGCGAUAGCGCCAACGUCCUCAACCUCCAAUGCAUCCCAGCACAUGAUGAUGCCUGAAGAGCCUUGGUUUUUUG	-3.98
GACCAAUCUGCCCUCAGAGCUCGAGAACAUCUUCGGAUGCAGAGGAGGCAGGCUUCGGUGCCGCGUUAGCGCCAACGUCCUCAACCUCCAAUGCAUCCCACCACAUGAUGAUGCCUGAAGGGCCUUGGUUUUUUG	-0.122
GACCAAUCUGCCCUCAGAGCUCGAGAACAUCUUCGGAUGCAGAGGAGGCAGGCUUCGGUGCCGCGAUAGCGCCAACGUGCUCAACUUCCAAUGCAUCCCACCACAUGAUGAUGCCUGAAGAGCCUUGGUUUUUUG	-1.95
